Consider six molecules from patent publication US11672846B2, “Soluble bacterial and fungal proteins and methods and uses thereof in inhibiting and dispersing biofilm” (priority 2014, dated 2023).

Entries after “also recorded” stand apart in the source; their conditions may differ. Like-named read-outs stand apart in the source and are kept apart here. A value given as a limit tells only on which side of the number the result lay.

Data set [1] deals with A549 pulmonary epithelial cell line injured by A. fumigatus. As to the kind of experiment: Chromium release epithelial cell damage assay. Conditions: recombinant Sph3 hydrolases, up to 24 h.
Description: The immortalized airway epithelial cell line A549 was loaded with chromium-51 by incubating monolayers grown in 24-well tissue culture plates with 3 mCi of ^51Cr at 37° C. in 5% CO2 for 24 h. Excess chromium was removed by washing with Hank's Balanced Salt Solution (HBSS). […] For testing germ tubes, conidia were grown for 7 h in SAB media at 37° C., then the fungus was collected and resuspended in DF12K media before 0.5 μM of hydrolase was added. The germ tubes were incubated with hydrolase for 1 h before being added to the A549 cells. After 16, 20 and 24 h of co-incubation, an aliquot of the medium above the cells was retrieved and replaced with fresh media. The cells were then lysed with 6 N NaOH and the lysate collected. The ^51Cr content of the medium and lysates was then measured in a gamma counter and the extent of epithelial cell damage was calculated as a function of the degree of ^51Cr release. Each strain was tested in triplicate, and all results were corrected for spontaneous chromium release by uninfected epithelial cells.
The methodology for prevention of epithelial cell damage caused by A. fumigatus using Sph352-298 is identical to that previously described in Example 19 for the use PelA47-303.
In a further data set the test system is A. fumigatus GAG biofilm. The data set is described as follows: Inhibition of GAG-dependent A. fumigatus biofilm formation (crystal violet). Format: cell-based.
Data set [2] has as its system PNAG-overproducing E. coli biofilms. As to the kind of experiment: Dispersal of pre-formed PNAG-dependent E. coli biofilms. The following applies: read-out: EC50 of degradation of pre-formed E. coli biofilm; 60 min, average starting OD595 of 0.5.
Description: Bacterial cultures expressing Psl were inoculated as stated above and were grown at 37° C. overnight with shaking at 200 rpm. All cultures were diluted in 1:100 in LB and arabinose was added to a final concentration of 0.5% (w/v) to induce Psl biosynthesis. Media containing the Psl-producing cultures were supplemented with 200 μg/mL ampicillin and 100 μg/mL kanamycin. The cultures were incubated statically for 24 h at 26° C. to allow for biofilm formation. After incubation non-adherent cells and media were removed by washing the plate with deionized water three times. The wells were filled with 95 μL of 100 mM sodium HEPES buffer pH 7.0 followed by 5 μL of varying concentrations of each hydrolytic enzyme (2 nM-5 μM). Reactions were allowed to proceed for up to 60 min at 25° C. on a rotating nutator at which time, the reaction was quenched by washing the plates with deionized water. The wells were stained with 200 μL of 0.1% (w/v) crystal violet for 10 min, and washed with water three times. Crystal violet dye from Psi cultures was solubilized in 100 μL of 95% ethanol for 10 min with rotation, after which time the absorbance was measured at 595 nm using a SpectraMax M2 from Molecular Devices (Sunnyvale, Calif.). The amount of biofilm is proportional to the absorbance from staining with crystal violet (Merritt et al 2005). All reactions were completed in at least triplicate and 100 mM sodium HEPES buffer pH 7.0 was used as an untreated control. The addition of 2.5 mg/mL kanamycin to culture prior to biofilm formation was used as a positive control as no cell growth occurs.
PNAG-overproducing E. coli was grown at 37° C. overnight in LB broth supplement with 200 ug/mL ampicillin and 100 ug/mL kanamycin with shaking at 200 rpm. An E. coli μgaABCD knockout strain was used as a non-biofilm forming control for background straining.
Data set [3] deals with PNAG-overproducing E. coli. The data set is described as follows: Inhibition of PNAG-dependent E. coli biofilm formation (crystal violet). Conditions: read-out: EC50 of E. coli biofilm formation prevention, static 24 h at 26° C.
Description: In brief, PNAG-overproducing E. coli or S. carnosus was grown at 37° C. overnight in LB broth supplement with 200 μg/mL ampicillin and 100 μg/mL kanamycin, and 10 μg/mL tetracycline, respectively, with shaking at 200 rpm. Fresh cultures with antibiotic were prepared from the overnight culture using a 1:100 dilution, using LB broth for E. coli, and tryptic soy broth for S. carnosus. 95 μL of diluted culture was added to a sterile 96-well polystyrene round bottom microtiter plate and varying concentrations of protein (2 nM-5 μM) were added in 5 μL aliquots to give a final volume of 100 μL. The cultures were incubated statically for 24 h at 26° C. for E. coli, and 37° C. for S. carnosus, to allow for biofilm formation. To eliminate edge-effects, ˜200 μL of sterile water was placed in all outside wells and the plate was sealed with parafilm. After incubation non-adherent cells and media were removed by washing the plate with deionized water three times. The wells were stained with 150 μL of 0.1% (w/v) crystal violet for 10 min, and washed with water three times. The remaining dye was solubilized with 100 μL of 33% (v/v) acetic acid for 10 min with rotation, after which time the absorbance was measured at 595 nm using a SpectraMax M2 from Molecular Devices (Sunnyvale, Calif.). […] All reactions were completed in at least triplicates and buffer G was used as an untreated control. Either an E. coli pgaABCD knockout strain (DPGA) or S. carnosus treated with gentamycin, was used as a control for background straining.
The nature of data set [4]: Reducing sugar assay on dPNAG. The class given is biochemical, S. aureus. Here is the method:
Isolated dPNAG from S. aureus strain MN8m was solubilized in 6 N HCl at ˜10 mg/mL. 10 N NaOH was used to titrate the re-suspension until neutrality was reached, ˜pH 7-8. In a 50 μL reaction, 1 μM BpsB318-670 was incubated with 1-5 mg/mL of dPNAG in 100 mM HEPES pH 7.0 for 18 hours. The sample was split into two 20 μL aliquots and treated with DTT/3-Methyl-2-benzothiazolinone hydrazone hydrochloride hydrate and heated at 80° C. for 15 minutes. A solution of 0.5% (w/w) iron (III) ammonium sulfate dodecahydrate, 0.5% (w/w) sulfamic acid, and 0.25 N hydrochloric acid was added, mixed, and cooled to room temperature. […] Protein and dPNAG in buffer H were used as background controls.

Data set [5] deals with pre-formed A. fumigatus GAG biofilms. Format: cell-based. The following applies: for dispersal of pre-formed GAG biofilm (in words): crystal violet.
The nature of data set [6]: Reducing sugar assay on purified GAG. Format: biochemical, A. fumigatus. Conditions: 10-20 μM protein, 26° C., 24 h. Here is the method:
Crude GAG was isolated from A. fumigatus biofilms. 200 μL GAG aliquots were centrifuged to pellet the gelatinous fraction. The pellets were washed twice with 350 μL PBS. The wash procedure included vortexing for 5 min, sonicated in a bath for 3 min, and manual mixing by pipetting to reach homogeneity. The final pellet was resuspended in 200 μL of PBS. Samples were treated with 10-20 μM protein and incubated at 26° C. Samples were taken at 24 h. GAG hydrolysis was quantified using a reducing sugar assay as described previously (Anthon & Barrett 2002) with slight modifications. Briefly, 20 μL of enzyme reaction was mixed with 20 μL of 0.5 M NaOH and 20 μL of MBTH/DTT solution (1.5 mg/L 3-methyl-2-benzothiazolinone hydrazine (MBTH) and 0.5 mg/L DTT). The samples were incubated at 80° C. for 15 min before the addition of 40 μL of acidic iron reagent (0.5% (FeNH4(SO4)2).12 H2O, 0.5% sulfamic acid, and 0.25 N HCl). Samples were diluted two-fold in water, before the absorbance was quantified at 620 nm.

For data set [7] the following is noted: purified protein.

B1: Sph3AN(43-299): Sph3 ortholog residues 43-299, Aspergillus nidulans FGSC A4, SEQ ID NO: 23 (protein)
chain: RRKNNNMGPKAKVFVPLYVYPAPGAWDPLVNVITAHPDVNFTVVVNPGSGPGPNPLPDRNYTQEIPRLTAHDNVRVLGYVATTYAKRNISSVRNDIETYAAWPTISANPKLAVRGIFFDETPQQYNASDLAYLEELTSVVKNTPGLGPDHFVFHNPGVVPDPRYLSTADSTVVFEATYDTFQDRDGARLFETIPNSNRSQLCAVVHSVPDSVEGSELRKFVKQARRVADEIFVTHLSTNYYASFGDKWDDFVRLMAQ
modifications: Aspergillus nidulans
In the case of B1, the “epithelial cell damage by A. fumigatus, chromium release” value is “completely protected epithelial cells from damage by A. fumigatus for 24 h” in data set [1] and “reduced fungal damage to epithelial cells” in data set [1] (listed as Sph3 from A. nidulans). For the same molecule, the “inhibition of A. fumigatus biofilm formation by recombinant Sph3 (in words)” value in the data set on A. fumigatus GAG biofilm is on record as “inhibit the formation of A. fumigatus biofilms in a dose dependent manner”.

B2: BpsB27-701: full-length BpsB residues 27-701, B. bronchiseptica RB50, SEQ ID NO: 18 (protein, listed as Bordetella bronchiseptica)
chain: YKVDMLPPPDPDDGLTFRVLCMHDVRDNLRASFADMPDQFAIETRTLTDLFEWIRVKGFNPISMQQIIDSRAGVRPLPPRPILLTFDDGYASTYTKVFPLLKKFNYPAVVAVVTSWTDAPAGTKIRLSPKIEVPHDFFMTWAQLREMAQSGLVELASHSHNLHRGVLANPQGNEQPAASSRQYLPASGRYENDAEYRARVRQDLKTSADLIREHTGVTIRSIVWPYGAHNRDTDQVAAEVGLNIGLTLQPGPNTPDVALTQIRRSLVDYEVNVATVARAMREPVSYHGQVRPIERIVQVDLDYIYDPDPEQQNRNLGQLIDRMKDLAPSAVYLQAFADPKGDGDITEVYFPNRHLPMRADLFNRVAWQLKTRAGVMVYAWLPVLTFSVPPGNPAYGKVVQSTTRKPGERGLGSPTRLSPFHPDAHRVISEIYEDLAKAAHFDGLLFHDDAVLDDTEDSSPEALATYQGWGLPPDIAAIRADPKLAQQWSKGKIRYLIDFTMHLRHIVSGYQNDRDMVVARNLYAQPVLDPVSEAWYGQSLPEFLKSYDFVALMAMPNMEGAARPEQWMRQLVAAVARQKGLDRTIFELQARDWRVGKPIDTEILRRQMVQLRSLGAINYGYYPDDFIANHPDAEALRDVMSLKSTLEKRRLTKAQELSRQTTLYGSASQAEPTQR
By EC50 is commonly meant the concentration needed to bring the measured effect to its halfway point. On to B2, for which the values for the EC50 in data set [2] and in data set [3] were about 170 nM and about 40 nM, respectively. Besides, in data set [4], the “dPNAG hydrolysis (in words)” value is given as “hydrolyze dPNAG”.

B3: PgaB22-672: PgaB residues 22-672, E. coli K-12 MG1655, SEQ ID NO: 16 (protein, listed as Escherichia coli)
chain: ISQSRTSFIPPQDRESLLAEQPWPHNGFVAISWHNVEDEAADQRFMSVRTSALREQFAWLRENGYQPVSIAQIREAHRGGKPLPEKAVVLTFDDGYQSFYTRVFPILQAFQWPAVWAPVGSWVDTPADKQVKFGDELVDREYFATWQQVREVARSRLVELASHTWNSHYGIQANATGSLLPVYVNRAYFTDHARYETAAEYRERIRLDAVKMTEYLRTKVEVNPHVFVWPYGEANGIAIEELKKLGYDMFFTLESGLANASQLDSIPRVLIANNPSLKEFAQQIITVQEKSPQRIMHIDLDYVYDENLQQMDRNIDVLIQRVKDMQISTVYLQAFADPDGDGLVKEVWFPNRLLPMKADIFSRVAWQLRTRSGVNIYAWMPVLSWDLDPTLTRVKYLPTGEKKAQIHPEQYHRLSPFDDRVRAQVGMLYEDLAGHAAFDGILFHDDALLSDYEDASAPAITAYQQAGFSGSLSEIRQNPEQFKQWARFKSRALTDFTLELSARVKAIRGPHIKTARNIFALPVIQPESEAWFAQNYADFLKSYDWTAIMAMPYLEGVAEKSADQWLIQLTNQIKNIPQAKDKSILELQAQNWQKNGQHQAISSQQLAHWMSLLQLNGVKNYGYYPDNFLHNQPEIDLIRPEFSTAWYPKND
With B3, the figures for the EC50 in data set [2] and in data set [3] were over 1000 nM and about 90 nM, respectively. Moreover, the “dPNAG hydrolysis (in words)” value in data set [4] was “hydrolyze dPNAG”.

B4: Sph352-298: soluble Sph3 residues 52-298, Aspergillus fumigatus Af293, SEQ ID NO: 20 (protein, listed as Aspergillus fumigatus)
chain: SKVFVPLYVYPAPGAWTPLEDVISKHPDVNFTVVINPGSGPGPNALPDGNYTREIPKLASYENVRLLGYVATTYAKRNISLVRRDIETYAAWPTNSSNPALAVRGIFFDETPQQYDEDALAYLQELTDVVKNTPGLGPDHYVVHNPGAIPDSRYLSTADSTVVFEATYDTFQERHGAKLFEAIPDSNRSQLCAVIHSVPESVEGSALRSLVKQVRKVADEIFITHLDTDYYASFGRQWPEFVDLMGK
On to B4, for which the “epithelial cell damage by A. fumigatus, chromium release” value in data set [1] is “reduced fungal damage to epithelial cells”. In the data set on A. fumigatus GAG biofilm, the “inhibition of A. fumigatus biofilm formation by recombinant Sph3 (in words)” value is “inhibit the formation of A. fumigatus biofilms in a dose dependent manner”. In data set [5], the “activity against preformed biofilms of multiple A. fumigatus strains / clinical isolates” value is “dose-dependent activity; also recorded: active against multiple strains of A. fumigatus” and the “dispersal of pre-formed GAG biofilm (in words)” value is given as “elimination of the GAG biofilms; also recorded: capable of disrupting GAG-dependent biofilms”. Further, the “concentration sufficient at preventing GAG biofilm formation” value in data set [5] (FIG. 36, crystal violet) is on record as 280 nM. In addition, the “GAG hydrolysis, reducing ends (in words)” value in data set [6] is recorded as “number of reducing ends in solution increased”. In addition, the “concentration to which the protein could be concentrated” value in data set [7] was in the range of 8000 to 10000 µg/mL.

B5: GmetPelA23-277: PelA ortholog, residues 23-277, from Geobacter metallireducens, SEQ ID NO: 14 (protein, listed as Geobacter metallireducens)
chain: PPLSVALYYGKQPPVNDLHAFDIVVIDPDSGLTPSEYGSGRSELFAYVSVGEADTARSYTKQMPDRWIIGKNPVWKSKIVDVSSEEWKQFFLDDVVEPLWQAGYRGFFLDTLDSYLIAAPTEAHPRMEAGLVSVVRAIRQRHPEARLILNRGFEIFDRVKDLVYAVAAESLFQNFNTVSGKYGAVDDKDRSWLTSRLNVIRETGVPVIAIDYVDPGNRPLMRETADKIRSLGFTPWVTDKDLAGLGIGSVEVMPRTVLGLYDGGEGAG
For the molecule B5, the “dispersal of pre-formed GAG biofilm (in words)” value was “less efficacious” in data set [5] and “less effective at eliminating GAG biofilms” in data set [5] (listed as GmPelA23-277).

B6: PgaB310-672: PgaB C-terminal hydrolase domain residues 310-672, SEQ ID NO: 17 (protein, listed as Escherichia coli)
chain: EKSPQRIMHIDLDYVYDENLQQMDRNIDVLIQRVKDMQISTVYLQAFADPDGDGLVKEVWFPNRLLPMKADIFSRVAWQLRTRSGVNIYAWMPVLSWDLDPTLTRVKYLPTGEKKAQIHPEQYHRLSPFDDRVRAQVGMLYEDLAGHAAFDGILFHDDALLSDYEDASAPAITAYQQAGFSGSLSEIRQNPEQFKQWARFKSRALTDFTLELSARVKAIRGPHIKTARNIFALPVIQPESEAWFAQNYADFLKSYDWTAIMAMPYLEGVAEKSADQWLIQLTNQIKNIPQAKDKSILELQAQNWQKNGQHQAISSQQLAHWMSLLQLNGVKNYGYYPDNFLHNQPEIDLIRPEFSTAWYPKND
Regarding B6, the EC50 is 200 nM in data set [2] and about 230 nM in data set [3]. Also, in data set [4], the “dPNAG hydrolysis (in words)” value is recorded as “hydrolyze dPNAG”. The “concentration to which the protein could be concentrated” value in data set [7] was in the range of 8000 to 10000 µg/mL.
